Reference: article PMC6470172, “Conformational plasticity in the KcsA potassium channel pore helix revealed by homo-FRET studies” (Scientific Reports, 2019)
Changes are numbered by the printed parent chain. Numbers in names are those of the source.

Tests used:
[1] = target: the molecule itself; experiment: SDS-PAGE of the tetramer; 13.5% SDS-PAGE of the detergent-solubilised protein; 20 mM Hepes pH 7 or 10 mM succinic acid pH 4, 5 mM DDM, 200 mM Cs+, Rb+, K+ or Na+, or TBA+
[2] = target: the molecule itself; experiment: FRET or BRET; homo-FRET between the W67 residues of the subunits, read by steady-state and time-resolved fluorescence anisotropy; 6 uM protein (monomer based), 5 mM DDM, pH 7 or pH 4, saturating monovalent cations or TBA+, room temperature

B1: KcsA W26,68,87,113F quadruple mutant channel (W67 KcsA) (natural protein, S. lividans, UniProt P0A334 1-160, looked up)
chain: MPPMLSGLLARLVKLLLGRHGSALHFRAAGAATVLLVIVLLAGSYLAVLAERGAPGAQLITYPRALWFSVETATTVGYGDLYPVTLFGRLVAVVVMVAGITSFGLVTAALATFFVGREQERRGHFVRHSEKAAEEAYTRTTRALHERFDRLERMLDDNRR
notes: KcsA potassium channel cloned from S. lividans; single Trp (W67) left per subunit; called full-length in the discussion; Homotetramer; also called KcsA W67
stoichiometry N [1]: 4

B2: KcsA W26,68,87,113F E71A mutant channel (W67 E71A KcsA) (natural protein, S. lividans, UniProt P0A334 1-160, looked up)
chain: B1 chain with E71A
notes: KcsA potassium channel cloned from S. lividans; also called E71A W67 KcsA; E71A W67
binding result [2]: binds
